B1: 218G4 (antibody, V domains shown)
VH: QVQLVESGGGVVQPGRSLRLSCAASGFTFSSYGLHWVRQAPGKGLEWVAVIWYDGSNKYYADSVKGRFTISRDNSKNTLYLQMNSLRVEDTAVYYCANWYYYYYGMDVWGQGTTVTVSS
VL: QSVLTQPPSVSAAPGQKVTISCSGSSSNIGNNYVSWYQQLPGTAPKLLLYDSNKRPSGIPARFSGSKSGTSATLGITGLQTGDEADYYCGTWDSSLNTVVFGGGTKLTVL
notes: mAb
B2: 54E9 (antibody, V domains shown)
VH: QVQLVQSGAEVKKPGASVKVSCKASGYTFNSYGISWVRLAPGQGLEWMGWISAYNGNTKNAQKLQGRVTMTTDTSTSTAYMELRSLRSDDTAVYYCARHDFWSGYYKGMDVWGQGTTVTVSS
VL: not shown
notes: Tested as hybridoma supernatant at normalized concentration
B3: 75G3 (antibody, V domains shown)
VH: QVQLQQWGAGLLKPSETLSLTCAVYGGSLSGSYWSWIRQPPGKGLEWIGEINLSGSTNYNPSLKSRVTISVDTSKSQFSLTLRSVTAADTAVYYCARDYGGLDYWGQGTLVTVSS
VL: EIVLTQSPGTLSLSPGERATLSCRARQNVDSSYLAWYQQKPGQAPRLLIYGASSRATGIPDRFSGSGSGTDFTLTISRLEPEDFAVFYCQQYERSPWTFGQGTKVEIK
notes: mAb
B4: 176H4 (antibody, V domains shown)
VH: QVQLVESGGGVVQPGRSLRLSCAASGFTFSSYGMHWVRQAPGKGLEWVAIIWYDGSYKYYADSVKGRFTISRDNSKNTLYLQMSSLRAEDTAVYYCARDAHDFWSGYFAYWGQGALVTVSS
VL: DIVMTQTPLSLSVTPGQPASISCKSSQSLLHGDGKTYLYWYLQKPGQPPQLLIYEVSNRFSGVPDRFSGSGSGTDFTLKISRVEAEDVGIYYCMQSIQIPWTFGQGTRVEIK
notes: mAb
B5: 22G5 (antibody, V domains shown)
VH: EVQLLESGGGLVQPGGSLRLSCAASGFTFSSYAMNWVRQAPGMGLEWVSVISRSGGYTYYADSVKGRFTISRDNSKNTLYLQMNSLRAEDTAVYYCASRLAVAGSEAFDIWGQGTLVTVSS
VL: DIQMTQSPSSLSASVGDRVTITCRASQNISSYLNWYQQKQGKAPKLLIYAASSLQNGVPSRFSGRGSGTDFTLTISSLQPEDFATYYCQQSYRTPLFTFGPGTKVDFK
notes: as for B2
B6: 191G1 (antibody, V domains shown)
VH: QVQLVESGGGVVQPGRSLRLSCAASGFTFSSYGMHWVRQAPGKGLEWVAVIWYDGSNEHYADSVKGRFTISRDNSKNTLYLQMNSLRAEDTAVYYCARDRGVGYYGLDVWGQGTTVTVSS
VL: DIQMTQSPSSLSASVGDRVTITCRASQGISNYLAWFQQKPGKAPKSLIYAASSLQSGVPSKFSGSGSGTDFTLTISSLQPEDFATYYCQHYLTYPLTFGGGTKVEIK
notes: mAb
B7: 194C1 (antibody, V domains shown)
VH: QVQLVESGGGVVQPGRSLRLSCAASGFTFSSYGMHWVRQAPGKGLEWVAVIWYDGSNEHYADSVKGRFTISRDNSKNTLYLQMNSLRAEDTAVYYCARNRGVGYYGLDVWGQGTTVTVSS
VL: DIQMTQSPSSLSASVGDRVTITCRASQGISNYLAWFQQKPGKAPKSLIYAASSLQSGVPSKFSGSGSGTDFTLTISSLQPEDFATYYCLHYLTYPLTFGGGTKVEIK
notes: mAb
B8: 197G3 (antibody, V domains shown)
VH: QVQLVESGGGVVQPGRSLRLSCVASGFTFSSHGMHWVRQAPGKGLEWVAVIWYDGSNKNYADSVKGRFTISRDNSKNTLYLQMNSLRAEDTAVYYCARDPSVGYDGMDVWGQGTTVTVSS
VL: DIQMTQSPSSLSASVGDRVTITCRASQGIGNHLAWFQQKPGKAPKSLIYAASSLQSGVPSKFSGSRSGTDFSLTISSLQPEDFATYYCQQYSNYPVTFGPGTKVDIK
notes: mAb
B9: 191G10 (antibody, V domains shown)
VH: QVQLVESGGGVVQPGRSLRLSCAASGFTFSSYGMHWVRQAPGKGLEWVAVIWYDGSNKNYADSVKGRFTISRDNSKNTLYLQMNSLRAEDTAVYYCARDQGVGYDGLDVWGQGTTVTVSS
VL: DIQMTQSPSSLSASVGDRVTITCRTSQGIGKYLAWFQQKPGKAPKSLLYKVSSLQSGVPSKFSGSGSGTDFTLTISSLQPEDFATYYCQQYMTYPLTFGGGTKVEIK
notes: mAb
B10: 198G3 (antibody, V domains shown)
VH: QVQLVESGGGVVQPGRSLKLSCAASGFTFSTYGMHWVRQAPGKGLEWVAVIWYDGTNKNYADSVKGRFTISRDNSKNTLCLQMNSLRAEDTAVYYCARDQGVGYDGLDVWGQGTTVTVSS
VL: DIQMAQSPSSLSASVGDRVTITCRTSQGIGKYLAWFQQKPGKAPKSLLYKASSLQGGVPSKFSGSGSGTDFTLTISSLQPEDFATYYCQQYMTYPLTFGGGTKVEIK
notes: mAb
B11: 194C10 (antibody, V domains shown)
VH: QVQLQQWGAGLLKPSETLSLTCAVSGGSFRYYYWSWIRQPPGKGLEWFGEINHSGSTNYNPSLKSRVTISIDTSKNQFSLKLRSVTAADTAVYYCARDYGAFDIWGQGTMVTVSS
VL: EIVLTQSPGTLSLSPGERATLSCRASPSVNSGYLAWYQQKPGQTPRLLIFGASSRATGIPDRFSASGSGADFTLTISRLEPEDFAVYFCQQYESSPWTFGQGTKVEIK
notes: mAb
B12: 193E7 (antibody, V domains shown)
VH: QVQLQQWGAGLLKPSETLSLTCAVYGGSFSGYFWTWIRQPPGKGLEWIGEINHSGSTNYNPSLKSRVTISVDTSKNQFSLKLSSVTAADTAVYYCARDYGADYWGQGTLVAVSA
VL: DIQMTQSPSSLSASVGDRVTITCRASQGIRNDLGWYQQKPGKAPKRLIYSASSLQRGVPSRFSGSGSGTEFTLTISSLQPEDFATYYCLQHKRYPLTFGGGTKVEIK
notes: as for B2
B13: 193E7 (antibody, V domains shown)
VH: QVQLQQWGAGLLKPSETLSLTCAVYGGSFSGYFWTWIRQPPGKGLEWIGEINHSGSTNYNPSLKSRVTISVDTSKNQFSLKLSSVTAADTAVYYCARDYGADYWGQGTLVAVSA
VL: DIQMTQSPSSLSASVGDRVTITCRASQGIRNDLGWYQQKPGKAPKRLIYSASSLQRGVPSRFSGSGSGTEFTLTISSLQPEDFATYYCLQHKRYPLTFGGGTKVEIK
notes: mAb
B14: 5E5 (antibody, V domains shown)
VH: QVQLVESGGGVVQPGRSLRLSCAASGFTFSNYVMHWVRQAPGKGLEWVAVIWYDGSNKYYADSVKGRFTISRDNSKNTLYLQMNSLRAEDTAVYYCTREVYSSGWYDYGMDVWGQGTTVTVSS
VL: DIQMTQSPSSLSASVGDRVTITCRASQGIRNDLGWYQQKPGKAPKRLIYAASSLQSGVPSRFSGSGSGTEFTLTISSLQPEDFATYYCLQHYSYPRTFGQGTKVEVK
notes: as for B2

Columns and labels:
[1] = molecular target: T1, human ASGR-1 mutant construct H203 (human, UniProt P07306 1-291); test: FACS ratio: 65C12 geomean / this mAb geomean
T1 construct: Arg/Glu scanning: non-arginine residues were changed to arginine; Transiently expressed on CHO-S cells
T1 sequence: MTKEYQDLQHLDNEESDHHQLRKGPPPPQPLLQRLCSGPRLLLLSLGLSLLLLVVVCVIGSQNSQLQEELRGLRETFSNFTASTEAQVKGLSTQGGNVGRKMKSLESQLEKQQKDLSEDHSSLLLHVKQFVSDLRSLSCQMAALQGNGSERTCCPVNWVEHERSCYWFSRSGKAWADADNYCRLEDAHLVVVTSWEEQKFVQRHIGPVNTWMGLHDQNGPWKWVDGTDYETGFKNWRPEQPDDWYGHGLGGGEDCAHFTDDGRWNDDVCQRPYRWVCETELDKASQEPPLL
In short: (§1)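 CHO-S cells transiently expressing wild-type or point-mutant hASGR-1 were stained with antibody at 5 ug/ml for 1 h at 4 °C. Bound antibody was detected by Fc-specific Alexa 647 secondary plus 7-AAD and read by flow cytometry. Ratio is 65C12 geomean divided by test mAb geomean, normalizing for expression.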

human ASGR-1 (wild type) = molecular target: T2, human ASGR-1 (wild type) (human, UniProt P07306 1-291); test: FACS ratio: 65C12 geomean / this mAb geomean
T2 construct: also called wt ASGR1; huASGR-1
T2 sequence: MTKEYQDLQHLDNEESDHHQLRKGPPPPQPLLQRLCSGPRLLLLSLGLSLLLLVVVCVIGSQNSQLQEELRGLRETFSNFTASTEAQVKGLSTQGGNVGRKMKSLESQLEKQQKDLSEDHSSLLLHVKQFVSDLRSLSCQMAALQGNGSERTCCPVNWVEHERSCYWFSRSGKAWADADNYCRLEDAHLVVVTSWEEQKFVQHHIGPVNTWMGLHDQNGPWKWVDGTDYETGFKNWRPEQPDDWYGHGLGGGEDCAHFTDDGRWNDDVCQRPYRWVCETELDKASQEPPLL
In short: as §1

Cyno ASGR-1 = molecular target: T3, Cyno ASGR-1 (cynomolgus monkey, UniProt P07306 1-291 (human entry)); test: FACS on transfected HEK 293 cells or membrane preps on beads; Y = signal at least 2x irrelevant IgG
T3 construct: Expressed on HEK 293 cells or as membrane prep on beads; cDNA from XP_005582755; also called cynomologus monkey ASGR-1
T3 chain: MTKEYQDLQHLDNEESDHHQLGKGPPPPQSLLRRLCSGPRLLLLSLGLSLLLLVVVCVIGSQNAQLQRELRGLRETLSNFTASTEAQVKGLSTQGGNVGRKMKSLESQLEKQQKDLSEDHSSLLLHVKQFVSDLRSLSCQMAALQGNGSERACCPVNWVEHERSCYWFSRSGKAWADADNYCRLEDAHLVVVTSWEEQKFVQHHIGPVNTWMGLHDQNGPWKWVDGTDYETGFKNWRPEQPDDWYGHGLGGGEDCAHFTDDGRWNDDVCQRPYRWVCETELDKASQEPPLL
Protocol: Human ASGR-1-specific, ligand competing antibody samples were tested for binding to ASGR-1 from other species (cynomologus monkey ASGR-1, mouse ASGR-1, rat ASGR-1, dog ASGR-1, and pig ASGR-1) as well as to human ASGR-2 in FACS binding assays at normalized antibody concentrations. For cell-based assays, HEK 293 cells expressing the appropriate antigen of interest were mixed with antibody sample or controls, incubated for 1 hour at 4° C., and then washed twice. Cells with bound antibody were then incubated with Alexa Fluor® 647 IgG Fc fragment-specific detection antibody and 7-AAD viability stain for 15 minutes at 4° C., washed once and resuspended in FACS buffer. Samples were analyzed using a BD Accuri™ Flow Cytometer and an Intellicyt HyperCyt Autosampler. As a negative control, supernatants and controls were also screened against HEK 293 cells transfected with empty parental vector. […] For membrane-prep binding assays, ASGR-1 species specific membrane preps were used to coat LumAvidin® microspheres (beads) and tested for binding to selected hybridoma supernatants or controls. Briefly, ASGR-1 species specific membrane preps were incubated with streptavidin-coated LumAvidin® beads for 45 minutes in the dark at room temperature and washed twice. Beads were resuspeneded in FACS buffer containing Stabilguard®. Antigen-bound beads were then incubated with normalized antibody sample for 1 hour in the dark at room temperature, washed twice, incubated with Alexa Fluor® 488 IgG Fc fragment-specific detection antibody for 15 minutes in the dark at room temperature, washed once and finally resuspended in FACS buffer. Samples were analyzed using an Intellicyt iQue™ Screener Platform. FACS buffer supplemented with 1 mM Calcium Chloride was used in all steps. As a negative control, supernatants and controls were also screened against a non-ASGR-1 antigen membrane prep coated on the LumAvidin® beads.

Binder	Expression Normalization to mAb 65C12 [1]	Expression Normalization to mAb 65C12 (human ASGR-1 (wild type))	binding result (Cyno ASGR-1)
B1	3.25	4.59	–
B2	–	–	binds
B3	1.78	1.51	–
B4	2.52	1.67	–
B5	–	–	binds
B6	2.37	2.22	–
B7	2.33	2.69	–
B8	7.35	4.21	–
B9	1.51	1.66	–
B10	1.96	2.61	–
B11	1.95	1.99	–
B12	–	–	binds
B13	1.87	1.58	–
B14	–	–	binds

— patent US20190248902A1 (published 2019)
